Laboratory results as given in US20040086945A1, “Hairless protein-interacting partner complexes and methods thereto” (The Procter & Gamble Company, priority 2002, published 2004).

target: T1, mouse HRt (hairless protein aa 490-1182) (Mus musculus, UniProt Q61645); test: Yeast two-hybrid screen of BD-HRt against human brain cDNA library in AD vector, lacZ coloration on QDO-Xgal plates; assay type: cell-based; settings: BD-HRt(mouse) x human brain cDNA library in AD-vector
T1 construct: HR cDNA corresponding to the C-terminal half of HR protein (aa residues 490 to 1182, hereinafter HRt); expressed in transfected cells; host or cells: Saccharomyces cerevisiae PJ69-2A transformed with BD-HRt plasmid, mated with Y187 carrying the human brain cDNA library in pACT2
T1 sequence (Q61645 490-1182): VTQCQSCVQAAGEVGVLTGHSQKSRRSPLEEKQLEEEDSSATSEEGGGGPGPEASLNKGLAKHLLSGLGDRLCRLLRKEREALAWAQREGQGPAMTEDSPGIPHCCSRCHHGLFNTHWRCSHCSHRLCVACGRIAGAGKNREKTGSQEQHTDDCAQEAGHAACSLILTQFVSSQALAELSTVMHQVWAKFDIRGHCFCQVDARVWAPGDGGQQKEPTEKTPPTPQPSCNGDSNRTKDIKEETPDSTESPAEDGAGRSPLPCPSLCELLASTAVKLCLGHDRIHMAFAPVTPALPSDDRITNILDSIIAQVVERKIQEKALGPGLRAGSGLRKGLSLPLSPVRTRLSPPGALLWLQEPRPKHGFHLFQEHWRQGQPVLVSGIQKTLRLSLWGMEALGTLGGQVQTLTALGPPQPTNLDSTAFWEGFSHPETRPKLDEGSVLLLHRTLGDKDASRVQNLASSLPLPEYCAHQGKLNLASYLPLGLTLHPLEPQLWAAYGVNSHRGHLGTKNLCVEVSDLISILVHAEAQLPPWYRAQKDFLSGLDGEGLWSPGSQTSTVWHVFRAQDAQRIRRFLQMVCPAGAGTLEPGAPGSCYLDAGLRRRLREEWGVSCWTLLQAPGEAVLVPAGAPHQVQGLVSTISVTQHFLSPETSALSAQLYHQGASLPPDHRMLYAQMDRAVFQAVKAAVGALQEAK
Excerpt: The present example provides for Hairless Protein (HR) interacting partners (HR-IP) using the yeast two-hybrid technology. […] Yeast cells expressing BD-HRt are mated with yeast cells pretransformed with human brain cDNA library in the activation domain (AD) vector.
Cloning of HRt into GAL4 binding domain (BD) yeast two-hybrid (Y2H) vector: The HRt insert from pET32a-HRt is excised as an Eco RI-Xho I fragment (there is a unique Xho I site just adjacent to HRt insert) and inserted at the Eco RI-Sal I sites of Y2H-BD vector pGBKT7 (Catalog No. K1612-B; a component of Matchmaker two-hybrid System 3 (Catalog No. K1612-1) BD Biosciences Clontech, Palo Alto, Calif.) to obtain pGBKT7-HRt in which HRt is fused in-frame to GAL 4 DNA BD (this plasmid is also designated BD-HRt).
Pretransformed human brain […] cDNA Library Screen for HRt interaction partners: Pretransformed human brain […] high-complexity GAL4 cDNA library that has already been amplified and introduced into yeast strain Y187 (MATα) is used to screen for HRt interacting proteins. […] The library host strain Y187 provides a third reporter gene (lacZ) for optional quantification of signal strength. The protocol as described in Clontech user manual (PT3183-1) is used. Briefly, the library is mixed with PJ69-2A strain that has been transformed with the BD-HRt plasmid in YPD medium containing adenine hemisulfate (0.004%) and kanamycin (0.005%) and incubated for 20-24 h at 30° C. The next day, the mating mixture is plated on Leu, Trp, His TDO that selects for two-hybrid interactions, and then the positive clones are screened for growth on Leu, Trp, His, Ade QDO, which is a more stringent condition for interaction. Colonies that grew well on QDO are also screened for lacZ expression by streaking on QDO-Xgal plates. Based on a visual assessment of colonies for the intensity of blue color, the clones are classified into high (H), medium (M), low (L) or very low (VL) categories.
The positive clones are expected to contain an AD-IP (interacting partner) that interacts with BD-HRt. To characterize IP, the sequence of IP is determined and matched to the human genome database. For this purpose, total DNA is isolated from the positive clones and PCR amplified with […] AD LD (long distance)-insert screening amplimers (Catalog No.9103-1; BD Biosciences Clontech, PaloAlto, Calif.). Reaction is conducted in 50 μl volume for 35 cycles using the conditions recommended with the Advantage2 PCR kit (Catalog No. K1910-1; BD Biosciences Clontech, PaloAlto, Calif.).

Molecule	XGAL (rate and intensity of coloration of colonies on Xgal)
Human metallothionein from cadmium-treated cells: human HRt interacting partner, GenBank V00594, SEQ ID NO:3/4 (protein, listed as Homo sapiens) VPANPRATCPDSSRLFSSPWIPTAPAPPVTPAPAPAPANAKSANAPPARKAAAPAALWAVPSVPRAASAKGRRTSAAAAPDAGTAPLPDVKNATSTNLDFLCTTLTVTVCYIPFSMK	H (H = Intense blue within 2-3 days)
Human MDC15: human HRt interacting partner, GenBank U46005, SEQ ID NO:77 (protein, listed as Homo sapiens) LGLQWHADGRLTKKLNGLADLEACIKTLHGQGFSQPSLTTLTAFSVEGCLQEHCVILIQSW	L (L = Low blue in 5-7 days)
Human splicing factor (CC1.4): human HRt interacting partner, GenBank L10911, SEQ ID NO:59/60 (protein, listed as Homo sapiens) EFAAASTTAPVIIFVSKMFAVDAKALPQNKPRPLTQEEIAQRRERARQRHAEKLAAAQGQAPLEPTQDGSAIETCPKGEEPRGDEQQVESMTPKPVLQEENNQESFIAFARVFSGVARRGKKIFVLGPKYSPLEFLRRVPLGFSAPPDGLPQVPHMAYCALENLYLLMGRELEYLEEVPPGNVLGIGGLQDFVLKSATLCSLPSCPPFIPLNFEATPIVRVAVEPKHPSEMPQLVKG	L/VL
Human […]-mannosidase: human HRt interacting partner, GenBank U60337, SEQ ID NO:80/81 (protein, UniProt O00462 18-879, looked up) Beta-mannosidase: AAELSYSLRGNWSICNGNGSLELPGAVPGCVHSALFQQGLIQDSYYRFNDLNYRWVSLDNWTYSKEFKIPFEISKWQKVNLILEGVDTVSKILFNEVTIGETDNMFNRYSFDITNVVRDVNSIELRFQSAVLYAAQQSKAHTRYQVPPDCPPLVQKGECHVNFVRKEQCSFSWDWGPSFPTQGIWKDVRIEAYNICHLNYFTFSPIYDKSAQEWNLEIESTFDVVSSKPVGGQVIVAIPKLQTQQTYSIELQPGKRIVELFVNISKNITVETWWPHGHGNQTGYNMTVLFELDGGLNIEKSAKVYFRTVELIEEPIKGSPGLSFYFKINGFPIFLKGSNWIPADSFQDRVTSELLRLLLQSVVDANMNTLRVWGGGIYEQDEFYELCDELGIMVWQDFMFACALYPTDQGFLDSVTAEVAYQIKRLKSHPSIIIWSGNNENEEALMMNWYHISFTDRPIYIKDYVTLYVKNIRELVLAGDKSRPFITSSPTNGAETVAEAWVSQNPNSNYFGDVHFYDYISDCWNWKVFPKARFASEYGYQSWPSFSTLEKVSSTEDWSFNSKFSLHRQHHEGGNKQMLYQAGLHFKLPQSTDPLRTFKDTIYLTQVMQAQCVKTETEFYRRSRSEIVDQQGHTMGALYWQLNDIWQAPSWASLEYGGKWKMLHYFAQNFFAPLLPVGFENENTFYIYGVSDLHSDYSMTLSVRVHTWSSLEPVCSRVTERFVMKGGEAVCLYEEPVSELLRRCGNCTRESCVVSFYLSADHELLSPTNYHFLSSPKEAVGLCKAQITAIISQQGDIFVFDLETSAVAPFVWLDVGSIPGRFSDNGFLMTEKTRTILFYPWEPTSKNELEQSFHVTSLTDIY	L (L = Low blue in 5-7 days)
Human PACE4 (SPC4): human HRt interacting partner, GenBank AB001899, SEQ ID NO:69 (protein, UniProt P29122 150-969, looked up) Proprotein convertase …: QVRSDPQALYFNDPIWSNMWYLHCGDKNSRCRSEMNVQAAWKRGYTGKNVVVTILDDGIERNHPDLAPNYDSYASYDVNGNDYDPSPRYDASNENKHGTRCAGEVAASANNSYCIVGIAYNAKIGGIRMLDGDVTDVVEAKSLGIRPNYIDIYSASWGPDDDGKTVDGPGRLAKQAFEYGIKKGRQGLGSIFVWASGNGGREGDYCSCDGYTNSIYTISVSSATENGYKPWYLEECASTLATTYSSGAFYERKIVTTDLRQRCTDGHTGTSVSAPMVAGIIALALEANSQLTWRDVQHLLVKTSRPAHLKASDWKVNGAGHKVSHFYGFGLVDAEALVVEAKKWTAVPSQHMCVAASDKRPRSIPLVQVLRTTALTSACAEHSDQRVVYLEHVVVRTSISHPRRGDLQIYLVSPSGTKSQLLAKRLLDLSNEGFTNWEFMTVHCWGEKAEGQWTLEIQDLPSQVRNPEKQGKLKEWSLILYGTAEHPYHTFSAHQSRSRMLELSAPELEPPKAALSPSQVEVPEDEEDYTAQSTPGSANILQTSVCHPECGDKGCDGPNADQCLNCVHFSLGSVKTSRKCVSVCPLGYFGDTAARRCRRCHKGCETCSSRAATQCLSCRRGFYHHQEMNTCVTLCPAGFYADESQKNCLKCHPSCKKCVDEPEKCTVCKEGFSLARGSCIPDCEPGTYFDSELIRCGECHHTCGTCVGPGREECIHCAKNFHFHDWKCVPACGEGFYPEEMPGLPHKVCRRCDENCLSCAGSSRNCSRCKTGFTQLGTSCITNHTCSNADETFCEMVKSNRLCERKLFIQFCCRTCLLAG	L (L = Low blue in 5-7 days)
Human neuronal membrane glycoprotein M6b1: human HRt interacting partner, GenBank AF016004, SEQ ID NO:56 (protein, UniProt Q13491 1-265, looked up) Neuronal membrane …: MKPAMETAAEENTEQSQERKGCFECCIKCLGGVPYASLVATILCFSGVALFCGCGHVALAGTVAILEQHFSTNASDHALLSEVIQLMQYVIYGIASFFFLYGIILLAEGFYTTSAVKELHGEFKTTACGRCISGMFVFLTYVLGVAWLGVFGFSAVPVFMFYNIWSTCEVIKSPQTNGTTGVEQICVDIRQYGIIPWNAFPGKICGSALENICNTNEFYMSYHLFIVACAGAGATVIALLIYMMATTYNYAVLKFKSREDCCTKF	L (L = Low blue in 5-7 days)
Human cDNA FLJ20109 fis clone COL05067: human HRt interacting partner, GenBank BC009472, SEQ ID NO:72/73 (protein, listed as Homo sapiens) VASPPVPCSAAFRSLHISVARDLKMRLHLLLLLALCGAGTTAAELSYSLRGNWSICNGNGSLELPGAVPGCVHSALFQ	L (L = Low blue in 5-7 days)

tested on: Male C3H mice; test: Animal model for hair growth stimulation (HGS) activity; assay type: in vivo; settings: applied daily for 17 days to shaved, Nair-treated back; day 17 compared to control treatment
Protocol: Male C3H mice (˜42-48 days old and weighing ˜24 g) purchased from Harlan are acclimatized for 2 days and ˜2 cm^2 area on their back is shaved closely with an electric hair trimmer. To the shaved area, ˜300 μl of Nair lotion (NEW! Quick'n Easy 4 Minute Formula) is thinly smeared with a gloved fingertip for ˜30 sec. The area is wiped with Kimwipes for ˜15 sec and immediately washed under a gentle stream of lukewarm water for ˜50 sec and patted dry with Kimwipes. Test materials are applied (5 animals/test material) daily for 17 days. The shaved area is visually observed every day for anagen conversion and hair growth. Animal backs are photographed on day 8 and 17. In this model Triiodo thyronine (T3) has clear HGS activity (100% HGS activity), as evidenced by early onset of pigmentation and clear increase in hair length at day 17 compared to control treatment (60% ethanol, 20% propylene glycol and 20% Transcutol).

Molecule	HGS activity [%]
N[C@@H](Cc1cc(I)c(Oc2ccc(O)c(I)c2)c(I)c1)C(=O)O [Triiodo thyronine]	100
